Results published in patent US20040152630A1.

Molecular target: different isoforms of the 14-3-3
Assay: not stated (R18 isolated by phage display; Wang et al. 1999 cited)

- Kd: 80 nM
Binder: PHCVPRDLSWLDLEANMCLP [R18 polypeptide (14-3-3 amphipathic groove binding antagonist)]
